Assay results: IntAct's records for PubMed 22056771

Target: T1, atg7_yeast ATG7 (UniProt P38862)
T1 sequence: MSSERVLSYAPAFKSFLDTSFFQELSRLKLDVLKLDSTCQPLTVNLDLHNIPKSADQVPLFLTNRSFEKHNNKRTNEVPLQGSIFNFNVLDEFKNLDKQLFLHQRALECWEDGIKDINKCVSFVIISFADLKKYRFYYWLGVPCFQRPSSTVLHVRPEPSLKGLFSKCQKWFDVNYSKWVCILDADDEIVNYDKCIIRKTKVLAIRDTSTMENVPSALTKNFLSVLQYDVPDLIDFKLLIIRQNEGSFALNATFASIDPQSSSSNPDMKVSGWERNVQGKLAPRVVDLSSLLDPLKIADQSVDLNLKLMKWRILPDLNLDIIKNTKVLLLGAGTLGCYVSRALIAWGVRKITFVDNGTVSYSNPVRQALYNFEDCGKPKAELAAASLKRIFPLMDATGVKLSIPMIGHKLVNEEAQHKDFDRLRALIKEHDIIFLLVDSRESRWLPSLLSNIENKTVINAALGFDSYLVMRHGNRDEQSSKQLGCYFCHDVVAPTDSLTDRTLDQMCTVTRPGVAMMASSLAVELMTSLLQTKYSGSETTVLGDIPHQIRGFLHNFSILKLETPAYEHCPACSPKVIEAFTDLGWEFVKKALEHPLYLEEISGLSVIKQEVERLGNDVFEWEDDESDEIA

In the case of “Microtubule-associated protein 1 light chain 3 beta (Homo sapiens) (from UniProt Q9GZQ8) K65Y”, the “effect of a mutation on the interaction” value is reported as “increasing interaction”.
